# Reference: article PMC8967028
# Legend:
# Assay in all cases: SPR; Biacore T200; […], single cycle kinetics, […]; 25°C; PBS, 0.05% Tween 20, 3.4 mM EDTA; 1:1 binding model; triplicate; […]
# [1] = target: SARS-CoV-2 B.1.351 (Beta) spike (S) receptor binding domain (SARS-CoV-2)
# [2] = target: SARS-CoV-2 B.1.617.2 (Delta) spike (S) receptor binding domain (SARS-CoV-2)
# [3] = target: SARS-CoV-2 B.1.1.529 (Omicron) spike (S) receptor binding domain (SARS-CoV-2)
Substance,koff [1],koff [2],koff [3]
"VHH-72-Fc S56M,T99V (Fc fusion)",0.00068 s⁻¹,0.00035 s⁻¹,0.0252 s⁻¹
VHH-72-Fc S56M (Fc fusion),0.013 s⁻¹,0.001 s⁻¹,–
"VHH-72-Fc S56M,L97W,T99V (Fc fusion)",0.00039 s⁻¹,0.00023 s⁻¹,0.007 s⁻¹
"VHH-72-Fc S56M,L97W (Fc fusion)",0.0025 s⁻¹,0.00039 s⁻¹,0.7 s⁻¹
parental VHH-72-Fc (Fc fusion),0.029 s⁻¹,0.0051 s⁻¹,–
VHH-72-Fc T99V (Fc fusion),0.0077 s⁻¹,0.00062 s⁻¹,–
VHH-72-Fc L97W (Fc fusion),0.0079 s⁻¹,0.00081 s⁻¹,–
"VHH-72-Fc L97W,T99V (Fc fusion)",0.00056 s⁻¹,0.00016 s⁻¹,0.061 s⁻¹
